Experimental data as given in patent publication US20220153847A1 (Chugai, published 2022).

What was measured:
[1] = molecular target: T1, HLA-DQ2.5/alpha 3 gliadin peptide complex on Ba/F3 cells (human); test: FACS, Ba/F3 cells; IC17=0%, DQN0139bb=100%;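 note: flow cytometric binding of anti-HLA-DQ antibodies, each applied at 5 µg/mL for 30 min at room temperature, to Ba/F3 cell lines displaying HLA-DQ–peptide complexes; antibody tested at 5 microgram/mL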
T1 construct: whole, on cells; also called Ba/F3-HLA-DQ2.5/alpha 3 gliadin; HLA-DQ2.5/a3 gliadin
Source text: (§1) The binding of anti-HLA-DQ antibodies to Ba/F3-HLA-DQ2.5, Ba/F3-HLA-DQ2.2, Ba/F3-HLA-DQ7.5, Ba/F3-HLA-DQ8, Ba/F3-HLA-DQ5.1, Ba/F3-HLA-DQ6.3, Ba/F3-HLA-DQ7.3, Ba/F3-HLA-DR, Ba/F3-HLA-DP, Ba/F3-HLA-DQ2.5/CLIP, Ba/F3-HLA-DQ2.5/HBV, Ba/F3-HLA-DQ2.5/Salmonella, Ba/F3-HLA-DQ2.5/TPO, Ba/F3-HLA-DQ2.5/M. bovis, Ba/F3-HLA-DQ2.5/alpha 1 gliadin, Ba/F3-HLA-DQ2.5/alpha 2 gliadin, Ba/F3-HLA-DQ2.5/gamma 1 gliadin, Ba/F3-HLA-DQ2.5/gamma 2 gliadin, Ba/F3-HLA-DQ2.5/omega 1 gliadin, Ba/F3-HLA-DQ2.5/omega 2 gliadin, Ba/F3-HLA-DQ2.5/BC hordein, Ba/F3-HLA-DQ2.5/alpha 3 gliadin, Ba/F3-HLA-DQ2.5/alpha 1b gliadin, Ba/F3-HLA-DQ2.5/gamma 4b gliadin, Ba/F3-HLA-DQ2.5/avenin 1, Ba/F3-HLA-DQ2.5/avenin 2, Ba/F3-HLA-DQ2.5/avenin 3, Ba/F3-HLA-DQ2.5/hordein 1, Ba/F3-HLA-DQ2.5/hordein 2, Ba/F3-HLA-DQ2.5/secalin 1, Ba/F3-HLA-DQ2.5/secalin 2, Ba/F3-HLA-DQ2.5/14mer 1, Ba/F3-HLA-DQ2.5/33mer gliadin, Ba/F3-HLA-DQ2.5/26mer gliadin, was tested. 5 microgram/mL of each of the anti-HLA-DQ antibodies was incubated with each cell line for 30 minutes at room temperature and washed with FACS buffer (2% FBS, 2 mM EDTA in PBS).

[2] = molecular target: T2, HLA-DQ2.5/alpha 2 gliadin peptide complex on Ba/F3 cells (human); test: FACS, Ba/F3 cells; IC17=0%, DQN0139bb=100%;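 note: flow cytometric binding of anti-HLA-DQ antibodies, each applied at 5 µg/mL for 30 min at room temperature, to Ba/F3 cell lines displaying HLA-DQ–peptide complexes; antibody tested at 5 microgram/mL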
T2 construct: whole, on cells; also called Ba/F3-HLA-DQ2.5/alpha 2 gliadin; HLA-DQ2.5/a2 gliadin
Source text: as §1

[3] = molecular target: T3, HLA-DQ2.5/33mer gliadin peptide complex on Ba/F3 cells (human); test: FACS, Ba/F3 cells; IC17=0%, DQN0139bb=100%;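 note: flow cytometric binding of anti-HLA-DQ antibodies, each applied at 5 µg/mL for 30 min at room temperature, to Ba/F3 cell lines displaying HLA-DQ–peptide complexes; antibody tested at 5 microgram/mL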
T3 construct: whole, on cells; also called Ba/F3-HLA-DQ2.5/33mer gliadin
Source text: as §1

HLA-DQ7.3 on Ba/F3 cells = molecular target: T4, HLA-DQ7.3 on Ba/F3 cells (human, UniProt P01909 24-216; P01920 33-230, limits assumed); test: FACS, Ba/F3 cells; IC17=0%, DQN0139bb=100%;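 note: flow cytometric binding of anti-HLA-DQ antibodies, each applied at 5 µg/mL for 30 min at room temperature, to Ba/F3 cell lines displaying HLA-DQ–peptide complexes; antibody tested at 5 microgram/mL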
T4 construct: whole, on cells; also called Ba/F3-HLA-DQ7.3
Source text: as §1
T4 MHC II alpha: not shown
T4 MHC II beta: not shown

[4] = molecular target: T5, HLA-DQ2.5/alpha 1b gliadin peptide complex on Ba/F3 cells (human); test: FACS, Ba/F3 cells; IC17=0%, DQN0139bb=100%
T5 construct: whole, on cells; also called Ba/F3-HLA-DQ2.5/alpha 1b gliadin; HLA-DQ2.5/a1b gliadin
Source text: as §1

[5] = molecular target: T6, HLA-DQ2.5/CLIP peptide complex on Ba/F3 cells (human); test: FACS, Ba/F3 cells; IC17=0%, DQN0139bb=100%
T6 construct: whole, on cells; also called Ba/F3-HLA-DQ2.5/CLIP
T6 sequence (P04233 96-124, chain 2 of 2, other chains not shown): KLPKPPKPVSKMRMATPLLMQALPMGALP
Source text: as §1

[6] = molecular target: T7, HLA-DQ2.5/hordein 1 peptide complex on Ba/F3 cells (human); test: FACS, Ba/F3 cells; IC17=0%, DQN0139bb=100%
T7 construct: whole, on cells; also called Ba/F3-HLA-DQ2.5/hordein 1
Source text: as §1

[7] = molecular target: T8, HLA-DQ2.5/omega 2 gliadin peptide complex on Ba/F3 cells (human); test: FACS, Ba/F3 cells; IC17=0%, DQN0139bb=100%
T8 construct: whole, on cells; also called Ba/F3-HLA-DQ2.5/omega 2 gliadin; HLA-DQ2.5/w2 gliadin
Source text: as §1

HLA-DQ8 on Ba/F3 cells = molecular target: T9, HLA-DQ8 on Ba/F3 cells (human, UniProt P01909 24-216; P01920 33-230, limits assumed); test: FACS, Ba/F3 cells; IC17=0%, DQN0139bb=100%
T9 construct: whole, on cells; also called Ba/F3-HLA-DQ8
Source text: as §1
T9 MHC II alpha: not shown
T9 MHC II beta: not shown

[8] = molecular target: T10, HLA-DQ2.5/avenin 1 peptide complex on Ba/F3 cells (human); test: FACS, Ba/F3 cells; IC17=0%, DQN0139bb=100%
T10 construct: whole, on cells; also called Ba/F3-HLA-DQ2.5/avenin 1
Source text: as §1

HLA-DQ7.5 on Ba/F3 cells = molecular target: T11, HLA-DQ7.5 on Ba/F3 cells (human, UniProt P01909 24-216; P01920 33-230, limits assumed); test: FACS, Ba/F3 cells; IC17=0%, DQN0139bb=100%
T11 construct: whole, on cells; also called Ba/F3-HLA-DQ7.5
T11 sequence (P01920 33-230 limits assumed, chain 2 of 4, other chains not shown): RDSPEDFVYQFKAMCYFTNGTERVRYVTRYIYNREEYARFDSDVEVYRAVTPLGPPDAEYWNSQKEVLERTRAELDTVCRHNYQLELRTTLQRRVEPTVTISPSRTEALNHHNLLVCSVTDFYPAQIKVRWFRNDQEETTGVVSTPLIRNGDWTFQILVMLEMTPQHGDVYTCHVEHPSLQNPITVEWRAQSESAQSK
Source text: as §1

[9] = molecular target: T12, HLA-DQ2.5/BC hordein peptide complex on Ba/F3 cells (human); test: FACS, Ba/F3 cells; IC17=0%, DQN0139bb=100%
T12 construct: whole, on cells; also called Ba/F3-HLA-DQ2.5/BC hordein
Source text: as §1

[10] = molecular target: T13, HLA-DQ2.5/hordein 2 peptide complex on Ba/F3 cells (human); test: FACS, Ba/F3 cells; IC17=0%, DQN0139bb=100%
T13 construct: whole, on cells; also called Ba/F3-HLA-DQ2.5/hordein 2
Source text: as §1

[11] = molecular target: T14, HLA-DQ2.5/avenin 3 peptide complex on Ba/F3 cells (human); test: FACS, Ba/F3 cells; IC17=0%, DQN0139bb=100%
T14 construct: whole, on cells; also called Ba/F3-HLA-DQ2.5/avenin 3
Source text: as §1

[12] = molecular target: T15, HLA-DQ2.5/avenin 2 peptide complex on Ba/F3 cells (human); test: FACS, Ba/F3 cells; IC17=0%, DQN0139bb=100%
T15 construct: whole, on cells; also called Ba/F3-HLA-DQ2.5/avenin 2
Source text: as §1

[13] = molecular target: T16, HLA-DQ2.5/secalin 1 peptide complex on Ba/F3 cells (human); test: FACS, Ba/F3 cells; IC17=0%, DQN0139bb=100%
T16 construct: whole, on cells; also called Ba/F3-HLA-DQ2.5/secalin 1
Source text: as §1

[14] = molecular target: T17, HLA-DQ2.5/gamma 4b gliadin peptide complex on Ba/F3 cells (human); test: FACS, Ba/F3 cells; IC17=0%, DQN0139bb=100%
T17 construct: whole, on cells; also called Ba/F3-HLA-DQ2.5/gamma 4b gliadin; HLA-DQ2.5/g4b gliadin
Source text: as §1

[15] = molecular target: T18, HLA-DQ2.5/26mer gliadin peptide complex on Ba/F3 cells (human); test: FACS, Ba/F3 cells; IC17=0%, DQN0139bb=100%
T18 construct: whole, on cells; also called Ba/F3-HLA-DQ2.5/26mer gliadin
Source text: as §1

[16] = molecular target: T19, HLA-DQ2.5/omega 1 gliadin peptide complex on Ba/F3 cells (human); test: FACS, Ba/F3 cells; IC17=0%, DQN0139bb=100%
T19 construct: whole, on cells; also called Ba/F3-HLA-DQ2.5/omega 1 gliadin; HLA-DQ2.5/w1 gliadin
Source text: as §1

[17] = molecular target: T20, HLA-DQ2.5/gamma 2 gliadin peptide complex on Ba/F3 cells (human); test: FACS, Ba/F3 cells; IC17=0%, DQN0139bb=100%
T20 construct: whole, on cells; also called Ba/F3-HLA-DQ2.5/gamma 2 gliadin; HLA-DQ2.5/g2 gliadin
Source text: as §1

[18] = molecular target: T21, HLA-DQ2.5/gamma 1 gliadin peptide complex on Ba/F3 cells (human); test: FACS, Ba/F3 cells; IC17=0%, DQN0139bb=100%
T21 construct: whole, on cells; also called Ba/F3-HLA-DQ2.5/gamma 1 gliadin; HLA-DQ2.5/g1 gliadin
Source text: as §1

[19] = molecular target: T22, HLA-DQ2.5/secalin 2 peptide complex on Ba/F3 cells (human); test: FACS, Ba/F3 cells; IC17=0%, DQN0139bb=100%
T22 construct: whole, on cells; also called Ba/F3-HLA-DQ2.5/secalin 2
Source text: as §1

HLA-DQ2.2 on Ba/F3 cells = molecular target: T23, HLA-DQ2.2 on Ba/F3 cells (human, UniProt P01909 24-216, limits assumed); test: FACS, Ba/F3 cells; IC17=0%, DQN0139bb=100%
T23 construct: whole, on cells; also called Ba/F3-HLA-DQ2.2
Source text: as §1
T23 MHC II alpha: not shown
T23 MHC II beta: not shown

[20] = molecular target: T24, HLA-DQ2.5/14mer 1 peptide complex on Ba/F3 cells (human); test: FACS, Ba/F3 cells; IC17=0%, DQN0139bb=100%
T24 construct: whole, on cells; also called Ba/F3-HLA-DQ2.5/14mer 1
Source text: as §1

[21] = molecular target: DQ2.5/BC hordein peptide on IHW9023 cells (human); test: cell-based or functional assay
[22] = molecular target: DQ2.5/gamma 1 gliadin peptide on IHW9023 cells (human); test: cell-based or functional assay
[23] = molecular target: DQ2.5/alpha 2 gliadin peptide on IHW9023 cells (human); test: cell-based or functional assay
[24] = molecular target: DQ2.5/omega 2 gliadin peptide on IHW9023 cells (human); test: cell-based or functional assay

B1: DQN0429cc (antibody, V domains shown)
VH: QEQLVESGGGLVQPEGSLTLTCTASGFSFSSSYYMCWVRQAPGKGLEWIGCIYTGSGSTDYATWVNGRFTISKTSSTTVTLQMTSLTVADTATYFCARDIGIDYNFWGPGTLVTVSS
VL: AFELTQTPSFVEARVGGTVTIKCQATQSISSYLNWYQQKPGQPPKLLIYYASTLASGVPSRFKGSGSGTEFTLTISGVECADAATYYCHYGISYVSFGGGTKVEIK
notes: also called DQN0492cc
- % MFI [1]: 9.4%
- % MFI [2]: 67.7%
- % MFI [3]: 50.2%
- % MFI (HLA-DQ7.3 on Ba/F3 cells): 0.2%
- % MFI [4]: 15.7%
- % MFI [5]: 0.2%
- % MFI [6]: 4.5%
- % MFI [7]: 45.5%
- % MFI (HLA-DQ8 on Ba/F3 cells): 0.2%
- % MFI [8]: 0.8%
- % MFI (HLA-DQ7.5 on Ba/F3 cells): 0.2%
- % MFI [9]: 26.4%
- % MFI [10]: 70.6%
- % MFI [11]: 0.1%
- % MFI [12]: 2.9%
- % MFI [13]: 11.8%
- % MFI [14]: 13.6%
- % MFI [15]: 64%
- % MFI [16]: 13.4%
- % MFI [17]: 6.2%
- % MFI [18]: 36.6%
- % MFI [19]: 27.7%
- % MFI (HLA-DQ2.2 on Ba/F3 cells): 0.7%
- % MFI [20]: 58.5%
- IC50, Jurkat NFAT-Luc T cell activation [21]: 0.786 µg/mL
- IC50, Jurkat NFAT-Luc T cell activation [22]: 0.235 µg/mL
- IC50, Jurkat NFAT-Luc T cell activation [23]: 0.00497 µg/mL
- IC50, Jurkat NFAT-Luc T cell activation [24]: 0.0215 µg/mL
